# Laboratory results from the nanobody polyreactivity screen of Harvey et al. (2022).
# Experiment: yeast display, Sf9 membrane polyspecificity reagent, FACS + sequencing; frameworks hold sequencing errors
# Outline: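 Polyreactivity labels are assigned by the sorting gate from which each nanobody was recovered. The gates were low and high (top ~1%), set on anti-HA fluorescence for expression and streptavidin fluorescence for reagent binding. Before sorting, galactose-induced (36–48 hours) yeast display cells were stained for 1 hour at 4 °C with 10% biotinylated, detergent-solubilized Sf9 membrane reagent.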
row,Sequence,polyreactivity (PSR sort gate)
1,QVQLVESGGGLVQAAGSLRLSFAASGSIFGRYPMGWYRQAPGKERELVAAISTGDSTYYADSVKGRFTISRDNAKNTVYLQMISLKPEDTAVYYCNRRGRRGYDYWGQGTQVTVSS,high polyreactivity
2,QVQLVESGGGLVQAAGSLRLSSAASGLIFPYYVMGWYRQAPGKERELVAAISVSGGNTYYADSVKGRFTITRDNAKYTVYLQLNSLKPVDTAVYYSAADHYRGSYDYWGQGSQVTVSS,high polyreactivity
3,QVQLVESGGGLVQAAGSLRLSSAASGYTFYINAMGSYRQAPGKERELVATIRRRGGSTYYADSVKGRFTISRDNAKNTVYLQMNSLKPEDTAVYYCNADTLGGKYVYQYRRGFDYWGHGTQVTVSS,high polyreactivity
4,QVQLVESGGGLVQAAGSLRLSSAPSGRIFYKNARGWYRQAPGKETELVAAISWRGTSTYYADSVKGRFTISRDNAKNTVYLQMNILKPEDTAVYYCNTLYYSQREIYYWGYDSWGKGTQVTVSS,high polyreactivity
5,QVQLVESGGGLVQAAPSLRLSCAASGSTINNNAMGWYRQAPRKERELVAAIDSGFSTNYADSVKGRFTISRDNAKNTVYLQMNSLKPEDTAVYYCYADPDYFDYWGQGTQVTVSS,low polyreactivity
6,QVQLVESGGGLVQAGARLRLSCAASVSTFQSNAMGWSRQAPGKERELVAAIDQSGGSTYYADSLKGRFTISRDNAKNTVYLQMNSLKPEYTAVYYCAARTSGYWFSYGSWGQGTQVTVSS,high polyreactivity
7,QVQLVESGGGLVQAGASHRLSCAASGSTFRYNSMGSYRQAPGKERELVAAISRGGSTNYADSVNGRFTISRDNANNTVYLQMISLKPEATAVYYCAASGTRQEYDYWGQGTQVTVSS,high polyreactivity
8,QVQLVESGGGLVQAGASLRISCAASGNILPVYAMGWYRQAPGKEREFVAAITSRGGSTYYADSVKGRFTISRDNAKNTVYLQMNSLKPEDTAVYYCAAKYLRAYGYWGQGTQVTVSS,high polyreactivity
9,QVQLVESGGGLVQAGASLRLSCAASGFTFGVYAMVWYRQAPGTVIELVAAISSSGGSTYYADSVKGRFTISRDNAKNTVYLQMNSLKPEDTAVYYCAKDTNSYYKYGYWGQGTQVTVSS,high polyreactivity
10,QVQLVESGGGLVQAGASLRLSCAASGIILGSYAMGWYRQAPAKERELVAGITSGGGKYYADSVKGRFTISRDNAKNTVYLQMNSMKPEYTAVYYCAKLYFHYYRYGYWGQGTQVTVSS,low polyreactivity
11,QVQLVESGGGLVQAGASLRLSCAASGITFTPYAMGWYRQAPGKERELVAAISWRGGSTYYADSVKGRFTISRDNAKNTVYLQMNSLKPEDTAVYYCAKDGRGYGRYSRYYTGDYWGQGTQVTVSS,low polyreactivity
12,QVQLVESGGGLVQAGASLRLSCAASGLIFIHYAMGWYRQAPGKERELVATISRSGVRTYYADSVKGRFTISRDNAKNTVYLQMNSLKPEDTAVYYCAADYTTNFWGYRYNYWGQGTQVTVSS,low polyreactivity
13,QVQLVESGGGLVQAGASLRLSCAASGLNFKRNAMGWYRQAPGKERELVAAIRYSTDSTNYADSVKGRFTISRDNAKNTVFLQMNSLKPEDTAVYYCAKDKQDYEYWGQGTLVTVSS,low polyreactivity
14,QVQLVESGGGLVQAGASLRLSCAASGLTFIFYAMGWYRQAPGKERELVAAISVSGGCTYYADSVKGRFTISRDNAKNTVYLQMNSLKPEDTAVYYCAADREHFATYGPHMDYWGQGTQVTVSS,low polyreactivity
15,QVQLVESGGGLVQAGASLRLSCAASGRIFRNYAMGWYRQAPGKERELVAAISSSGGSTYYADSVKGRFTISRDIAKNTVYFQMNSLKPEDTAVYYCAAVARVRGRGDYWGQGSQVTVSS,high polyreactivity
16,QVQLVESGGGLVQAGASLRLSCAASGRIFYLNVMGWYIQAPGKERELVAAISSSDDSTYYADSVKGRFTISRHYAKNTVYLQMNSLKPEDTAVYYCAAGYHQVQNYGDAYYWSELYSWGLGTQVTVSS,low polyreactivity
17,QVQLVESGGGLVQAGASLRLSCAASGSIFADYAMGWYRQAPGKERELVAAISYNGDSTYYADSVKGRFTISRDNAKNTVYLQMNSLKPEDTGVYYCATEDNYWYVTGDLYHTAFYYWGQGTQVTVSS,low polyreactivity
18,QVQLVESGGGLVQAGASLRLSCAASGSIFAGYAMGWYRQAPWKERELVAAISWSGGGTYYADSVKGRFTISRDNEKNTVYLQMNSLKPEDTAVYYCNAYGYRHRGNGYWGQGTQVTVSS,high polyreactivity
19,QVQLVESGGGLVQAGASLRLSCAASGSIFIYYAMGWYRQAPGKERELVAAISGGGRTNYADSVKGRFTISRDNAKNTVYLQMNSLKPEDTAVYYCAADPVYWYSTMDFWGQGTQVTVSS,low polyreactivity
20,QVQLVESGGGLVQAGASLRLSCAASGSISKSYAMGWYRQAPGKERELVAAISWRGGSTYADSVKGRFTISRDNAKNTVYLQMNSLKPEDTAVYYCAAVPVHTGSLYWGFTTGYDYWGQGTQVTVSS,low polyreactivity
21,QVQLVESGGGLVQAGASLRLSCAASGSTSYPYAMGWYRQAPWKEREFVAAITRSGGSTYYADSVKGRYTISRDNAKNTVYLQMNSLKPEDTAFYYCAARRYYFTDWYRRYDYWGQGTQVTVSS,high polyreactivity
22,QVQLVESGGGLVQAGASLRLSCAATGNIFVPNAMGWYRQEPGKERELVAAIRRGGSTNYADSVKGRFTISRDNAKNTVYLQMNSMKPEDTAVYYCAKSRVSFTELEGYYWGQGTQVNVSS,low polyreactivity
23,QVQLVESGGGLVQAGASLRLSCASSGFTFGYYTMGWYRQAPGKERELVAAISWSGDSTYYADSVKGRLTISRDNAKNTVYLQMNSLKPEDTAVYYCAAEVYGSWPDYDYSGQGTQVTVSS,low polyreactivity
24,QVQLVESGGGLVQAGASLRLSSAASGFIFRDYAMGWYRQAPGKDRELVAAISRGGGTTYYEDSVKGRFTISRENAKNTVYLQMNSLTPEDTAVYYCAAKSAFPLDYWGQGTQVTVSS,high polyreactivity
25,QVQLVESGGGLVQAGASLRVSCAASGISLKYAMVWYRQAPGKERELVASISSRGTSTYYADSVKGRFTISRDNAKNTVYLQMNCLIPEDTAVYYCAARVRWWSPGGYWGQGTQVSVSS,high polyreactivity
26,QVQLVESGGGLVQAGASLRVSCAASGSTFNYNAMGWYRQAPGKERELVAAITYSGSSTYYSDSVKGRFTISRDNAKNTVYLQMNSLKPEYTAVYYCAADYWFRYGTYEYWGQGTQVSVSS,high polyreactivity
27,QVQLVESGGGLVQAGCSHRLSCSSTGRTFYIYDMGRYRQAPGKERELVAVISWSGGDTNYADSVKGRFRISRDNAKNTVYLQMNSLKPEDTAVYYCAATRRDRRKSFTYRYDYWGQGTQVTVSS,high polyreactivity
28,QVQLVESGGGLVQAGCSLRISCAASGFTFGKYAMGLYRQAPGNERELVAAITQCGGSTYYADSVKGRFTISRDNAKNTVYLQMNSLKPEYTAVYYCAADRRRQYRPGGYWGQGTQVTVSS,high polyreactivity
29,QVQLVESGGGLVQAGCSLRISCAASGSIYATKAIGWYRQAPGKERELVASISSGGCSTYYADSVKARFTISRDNAKNTVYLQLNSLKPEDTAVYYCARRIGHGSRPYWLETWRYPYDYWGQGTQVTVSS,low polyreactivity
30,QVQLVESGGGLVQAGCSLRLICAASGFIFPTNAMGWYRQAPGKERELVARISYGGGDTHYADSVKGRFTISRANAKTTVYLQMNSLKPEDTAVHYCAVKDGQDDYWGQGTQVTVSS,low polyreactivity
